This series concerns the molecule itself. Description: native gel or EMSA. (Mobility shift assays separate free from complexed probe on a gel.)

Broadly, the stoichiometry N is the number of molecules, sites or subunits per partner or assembly.

B1: FadD13 mutant A302G, N-terminal 6x histidine tagged (enzyme)
chain: MKNIGWMLRQRATVSPRLQAYVEPSTDVRMTYAQMNALANRCADVLTALGIAKGDRVALLMPNSVEFCCLFYGAAKLGAVAVPINTRLAAPEVSFILSDSGSKVVIYGAPSAPVIDAIRAQADPPGTVTDWIGADSLAERLRSAAADEPAVECGGDDNLFIMYTSGTTGHPKGVVHTHESVHSAASSWASTIDVRYRDRLLLPLPMFHVAALTTVIFSAMRGVTLISMPQFDATKVWSLIVEERVCIGGAVPAILNFMRQVPEFAELDAPDFRYFITGGAPMPEALIKIYAAKNIEVVQGYGLTESCGGGTLLLSEDALRKAGSAGRATMFTDVAVRGDDGVIREHGEGEVVIKSDILLKEYWNRPEATRDAFDNGWFRTGDIGEIDDEGYLYIKDRLKDMIISGGENVYPAEIESVIIGVPGVSEVAVIGLPDEKWGEIAAAIVVADQNEVSEQQIVEYCGTRLARYKLPKKVIFAEAIPRNPTGKILKTVLREQYSATVPK
notes: not shown: His6, N-terminal, kept
For the protein B1, the “stoichiometry N” value stood at 2.

B2: FadD13 mutant D382A, N-terminal 6x histidine tagged (enzyme)
chain: MKNIGWMLRQRATVSPRLQAYVEPSTDVRMTYAQMNALANRCADVLTALGIAKGDRVALLMPNSVEFCCLFYGAAKLGAVAVPINTRLAAPEVSFILSDSGSKVVIYGAPSAPVIDAIRAQADPPGTVTDWIGADSLAERLRSAAADEPAVECGGDDNLFIMYTSGTTGHPKGVVHTHESVHSAASSWASTIDVRYRDRLLLPLPMFHVAALTTVIFSAMRGVTLISMPQFDATKVWSLIVEERVCIGGAVPAILNFMRQVPEFAELDAPDFRYFITGGAPMPEALIKIYAAKNIEVVQGYALTESCGGGTLLLSEDALRKAGSAGRATMFTDVAVRGDDGVIREHGEGEVVIKSDILLKEYWNRPEATRDAFDNGWFRTGAIGEIDDEGYLYIKDRLKDMIISGGENVYPAEIESVIIGVPGVSEVAVIGLPDEKWGEIAAAIVVADQNEVSEQQIVEYCGTRLARYKLPKKVIFAEAIPRNPTGKILKTVLREQYSATVPK
notes: as for B1
Regarding B2, the binding result is recorded as “binds”.
